Results from publication doi:10.1101/2024.09.22.614354 (bioRxiv, 2024).

What was measured:
Assay in all cases: fluorescence polarisation
[1] = biological target: T1, Rb^P S474R (human, UniProt P06400 380-788, S474R)
T1 sequence: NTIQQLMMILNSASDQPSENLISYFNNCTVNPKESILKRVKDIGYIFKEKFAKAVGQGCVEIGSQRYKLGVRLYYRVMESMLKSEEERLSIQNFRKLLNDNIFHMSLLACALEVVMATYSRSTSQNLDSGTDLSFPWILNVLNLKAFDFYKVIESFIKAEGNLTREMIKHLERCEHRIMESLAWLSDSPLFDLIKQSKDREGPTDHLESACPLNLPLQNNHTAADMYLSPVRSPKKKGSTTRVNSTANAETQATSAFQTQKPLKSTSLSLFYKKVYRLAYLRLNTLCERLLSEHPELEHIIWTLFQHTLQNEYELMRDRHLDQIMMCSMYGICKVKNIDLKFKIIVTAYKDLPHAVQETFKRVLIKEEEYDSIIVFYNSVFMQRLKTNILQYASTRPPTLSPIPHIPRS

[2] = biological target: T2, Rb^P S474I (human, UniProt P06400 380-788, S474I)
T2 sequence: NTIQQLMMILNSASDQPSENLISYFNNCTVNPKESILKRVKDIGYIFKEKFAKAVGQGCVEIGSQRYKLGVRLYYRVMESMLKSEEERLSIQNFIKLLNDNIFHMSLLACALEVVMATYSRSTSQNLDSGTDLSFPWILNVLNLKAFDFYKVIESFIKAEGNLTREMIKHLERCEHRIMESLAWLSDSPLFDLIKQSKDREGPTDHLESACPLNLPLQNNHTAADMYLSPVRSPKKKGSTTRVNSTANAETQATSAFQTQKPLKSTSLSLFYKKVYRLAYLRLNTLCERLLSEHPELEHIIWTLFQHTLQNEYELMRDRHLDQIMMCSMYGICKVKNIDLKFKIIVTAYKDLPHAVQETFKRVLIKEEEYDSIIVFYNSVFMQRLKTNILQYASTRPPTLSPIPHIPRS

[3] = biological target: T3, Rb^P M695I (human, UniProt P06400 380-788, M695I)
T3 sequence: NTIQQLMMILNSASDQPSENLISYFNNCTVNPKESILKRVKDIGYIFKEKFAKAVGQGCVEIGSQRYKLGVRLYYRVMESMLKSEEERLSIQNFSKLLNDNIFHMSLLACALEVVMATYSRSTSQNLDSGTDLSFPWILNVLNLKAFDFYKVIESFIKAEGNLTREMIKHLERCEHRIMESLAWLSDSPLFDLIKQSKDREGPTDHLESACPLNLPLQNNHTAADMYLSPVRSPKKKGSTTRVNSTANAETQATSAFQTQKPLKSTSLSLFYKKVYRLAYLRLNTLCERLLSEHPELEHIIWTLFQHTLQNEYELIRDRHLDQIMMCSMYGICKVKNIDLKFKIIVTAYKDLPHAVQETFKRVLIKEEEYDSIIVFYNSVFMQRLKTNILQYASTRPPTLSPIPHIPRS

[4] = biological target: T4, Rb^P A525G (human, UniProt P06400 380-788, A525G)
T4 sequence: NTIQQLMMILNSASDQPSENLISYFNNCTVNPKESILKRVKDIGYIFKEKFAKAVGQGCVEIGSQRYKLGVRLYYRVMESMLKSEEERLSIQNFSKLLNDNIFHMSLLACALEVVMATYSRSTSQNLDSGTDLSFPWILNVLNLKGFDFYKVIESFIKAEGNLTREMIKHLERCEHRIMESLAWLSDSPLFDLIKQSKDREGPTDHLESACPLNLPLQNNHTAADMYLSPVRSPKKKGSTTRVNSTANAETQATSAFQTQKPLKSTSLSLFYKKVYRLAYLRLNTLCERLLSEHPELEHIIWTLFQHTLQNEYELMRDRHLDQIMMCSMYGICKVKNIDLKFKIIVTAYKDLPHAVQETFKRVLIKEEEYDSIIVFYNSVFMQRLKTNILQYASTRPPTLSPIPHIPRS

[5] = biological target: T5, Rb^P K530I (human, UniProt P06400 380-788, K530I)
T5 sequence: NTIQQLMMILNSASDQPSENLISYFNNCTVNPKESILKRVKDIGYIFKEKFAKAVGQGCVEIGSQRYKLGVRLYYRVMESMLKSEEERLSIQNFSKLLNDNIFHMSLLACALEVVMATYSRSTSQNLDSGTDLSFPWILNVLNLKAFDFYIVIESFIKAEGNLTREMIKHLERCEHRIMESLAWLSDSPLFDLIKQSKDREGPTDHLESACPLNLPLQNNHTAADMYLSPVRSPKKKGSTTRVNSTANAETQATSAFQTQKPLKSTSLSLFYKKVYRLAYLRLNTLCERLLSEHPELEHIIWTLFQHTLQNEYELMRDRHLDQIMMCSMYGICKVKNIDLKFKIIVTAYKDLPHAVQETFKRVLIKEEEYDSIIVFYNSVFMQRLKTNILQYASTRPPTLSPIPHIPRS

Measured: binding result

B1: TMR-E7^LxCxE (LxCxE peptide of the E7 oncoprotein from HPV, TMR-labeled) (peptide)
peptide: DLYCYEQLN
modifications: not fully specified; TMR fluorescent label (TMR-E7^LxCxE)
binds: [1] | [2] | [3] | [4] | [5]
